Data as given in patent US20250382376A1 (FUDAN UNIVERSITY, published 2025).

Key:
[1] = target: T1, cynomolgus monkey CD73-ECD (cynomolgus monkey, UniProt A0A2K5V5U7 27-549); assay: ELISA, coated cynomolgus CD73-ECD, method of Example 3
T1 construct: also called cynomolgus CD73-ECD
T1 sequence: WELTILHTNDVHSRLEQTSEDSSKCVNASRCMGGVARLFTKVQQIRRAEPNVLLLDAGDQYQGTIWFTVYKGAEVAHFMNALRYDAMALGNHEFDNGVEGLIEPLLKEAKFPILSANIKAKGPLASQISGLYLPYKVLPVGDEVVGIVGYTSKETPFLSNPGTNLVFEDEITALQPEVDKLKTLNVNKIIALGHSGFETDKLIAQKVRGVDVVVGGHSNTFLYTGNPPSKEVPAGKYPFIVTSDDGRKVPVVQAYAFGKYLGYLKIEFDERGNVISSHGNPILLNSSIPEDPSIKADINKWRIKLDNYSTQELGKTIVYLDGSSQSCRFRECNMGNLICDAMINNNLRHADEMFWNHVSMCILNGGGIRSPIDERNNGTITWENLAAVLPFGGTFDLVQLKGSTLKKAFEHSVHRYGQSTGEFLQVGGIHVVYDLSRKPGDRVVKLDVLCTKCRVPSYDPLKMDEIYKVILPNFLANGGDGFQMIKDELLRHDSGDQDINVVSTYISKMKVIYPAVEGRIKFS
Description: (§1) The CD73 protein extracellular region (CD73-ECD) was diluted to 1 μg/mL using the coating solution, and an ELISA plate was coated at 100 μL/well at 4° C. overnight. Excess antigens were washed away, and the plate was blocked with 1% BSA at room temperature for 2 hours. Then, 5-fold gradient dilutions of each monoclonal antibody were added at 100 μL/well and incubated at room temperature for 1 hour. Unbound antibodies were washed away, and an appropriate concentration of Staphylococcal protein A labeled with horseradish peroxidase was added at 100 μL/well and incubated at room temperature for 0.5 hours. Unbound secondary antibodies were washed away, and TMB color development solution was added to react for about 15 minutes. 1M HCL was added at 50 µL/well to terminate the color development reaction, and then the absorbance was measured at 450 nm and the data was analyzed.
(§2) The affinity of the humanized antibody to human and cynomolgus CD73-ECD was detected according to the ELISA determination method of Example 3.

[2] = target: T2, CD73 on the surface of human cells (human, UniProt P21589 27-549); assay: cell-based or functional assay
T2 sequence (looked up): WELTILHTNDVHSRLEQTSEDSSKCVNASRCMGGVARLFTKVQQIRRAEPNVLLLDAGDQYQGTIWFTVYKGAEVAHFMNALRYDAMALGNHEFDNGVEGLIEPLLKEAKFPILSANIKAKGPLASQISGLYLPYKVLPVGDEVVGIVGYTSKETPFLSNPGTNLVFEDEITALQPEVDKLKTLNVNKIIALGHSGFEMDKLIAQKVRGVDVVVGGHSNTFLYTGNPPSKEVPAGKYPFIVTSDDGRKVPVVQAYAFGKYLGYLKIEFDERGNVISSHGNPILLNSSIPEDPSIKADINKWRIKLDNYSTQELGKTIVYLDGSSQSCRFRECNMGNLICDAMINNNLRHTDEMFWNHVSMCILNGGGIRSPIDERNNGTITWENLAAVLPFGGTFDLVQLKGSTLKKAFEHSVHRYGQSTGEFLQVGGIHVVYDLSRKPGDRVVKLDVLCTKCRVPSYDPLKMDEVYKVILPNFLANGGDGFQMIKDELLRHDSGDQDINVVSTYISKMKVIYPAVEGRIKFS

[3] = target: T3, extracellular domain of human CD73 protein, C-terminus polyhistidine-tagged (human, UniProt P21589 27-547); assay: ELISA, coated human CD73-ECD, method of Example 3
T3 construct: also the immunogen; also called CD73-ECD; human CD73-ECD
T3 sequence: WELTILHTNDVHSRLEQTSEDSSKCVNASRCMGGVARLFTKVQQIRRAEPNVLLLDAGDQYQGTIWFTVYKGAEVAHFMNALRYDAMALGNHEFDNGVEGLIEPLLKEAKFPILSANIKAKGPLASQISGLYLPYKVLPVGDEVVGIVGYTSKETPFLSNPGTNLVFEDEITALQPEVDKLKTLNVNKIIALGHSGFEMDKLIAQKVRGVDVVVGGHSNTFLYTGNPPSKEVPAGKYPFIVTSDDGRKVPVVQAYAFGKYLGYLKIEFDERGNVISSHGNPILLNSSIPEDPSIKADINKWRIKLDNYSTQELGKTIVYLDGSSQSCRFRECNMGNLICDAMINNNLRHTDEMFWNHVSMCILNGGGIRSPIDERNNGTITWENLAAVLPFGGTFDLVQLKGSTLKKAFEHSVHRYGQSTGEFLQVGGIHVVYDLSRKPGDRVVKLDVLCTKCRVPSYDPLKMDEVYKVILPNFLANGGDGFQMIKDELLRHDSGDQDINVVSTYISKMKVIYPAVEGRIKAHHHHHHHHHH
Description: as §1, §2

[4] = target: T3, extracellular domain of human CD73 …; assay: ELISA on coated human CD73-ECD (the text rounds this value to 0.018 µg/mL)
Description: as §1
(§3) Based on the above mutants, 5-E11ASCS was designed and prepared, and the CD73 antigen ELISA binding affinity test was performed according to the method of Example 3.

[5] = target: T3, extracellular domain of human CD73 …; assay: ELISA, coated CD73-ECD, method of Example 3
Description: as §1, §3

[6] = target: T2, CD73 on the surface of human cells; assay: flow cytometry on SW1573 cells
Description: (§4) 100 μL of the test antibodies diluted from 10 μg/mL to 0.016 μg/mL in a 5-fold gradient were used as the primary antibodies, and were mixed with 1×10⁵ tumor cells suspended in 100 μL RPMI-1640 serum-free medium to make a final concentration of 5 μg/mL diluted to 0.008 μg/mL, and then incubated at 4° C. for 1 h. The cells were washed twice with PBS to remove unbound primary antibodies, and then the target cells were incubated with 200 μLPE-labeled secondary antibody at 2 μg/mL at 4° C. for 30 min. The cells were washed twice with PBS to remove unbound secondary antibodies, and finally the cells were resuspended in 200 μL PBS. The binding affinity of the test antibodies to CD73 on the surface of the corresponding cells was measured by flow cytometry.

[7] = target: T2, CD73 on the surface of human cells; assay: Flow cytometry on NCI-H1299 cells
Description: as §4
The binding affinity of the humanized antibodies to NCI-H1299 cells was detected according to the method for determining the binding affinity of CD73 on the surface of tumor cells in Example 5.

[8] = target: T4, human recombinant CD73 enzyme (CD73 extracellular region) (human, UniProt P21589 27-549); assay: cell-based or functional assay
T4 sequence (looked up): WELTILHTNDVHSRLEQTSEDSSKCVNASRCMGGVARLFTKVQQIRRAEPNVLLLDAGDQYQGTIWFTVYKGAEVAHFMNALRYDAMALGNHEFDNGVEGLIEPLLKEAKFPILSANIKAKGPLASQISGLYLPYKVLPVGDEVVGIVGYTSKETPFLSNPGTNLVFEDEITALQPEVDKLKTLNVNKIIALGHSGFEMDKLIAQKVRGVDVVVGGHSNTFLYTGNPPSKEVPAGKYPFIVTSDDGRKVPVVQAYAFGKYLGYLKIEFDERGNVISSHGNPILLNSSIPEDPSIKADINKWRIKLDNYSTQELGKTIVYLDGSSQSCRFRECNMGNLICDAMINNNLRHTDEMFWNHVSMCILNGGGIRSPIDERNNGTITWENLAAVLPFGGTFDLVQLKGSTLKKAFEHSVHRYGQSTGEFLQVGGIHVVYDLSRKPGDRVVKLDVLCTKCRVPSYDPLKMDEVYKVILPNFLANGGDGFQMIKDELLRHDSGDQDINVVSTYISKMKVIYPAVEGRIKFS

[9] = target: T2, CD73 on the surface of human cells; assay: flow cytometry on NCI-H1299 cells
[10] = target: T3, extracellular domain of human CD73 …; assay: SPR as the filing names it (method of Example 2, ForteBio OCTET R2)
Description: Surface plasmon resonance (SPR) assay: Protein A sensor was used to immobilize the antibodies, with an immobilization height of about 1.5 nM. […] Affinity detection: equilibrium for 60 s, binding for 180 s, dissociation for 180 s, at a detection temperature of 25° C. Kinetic characterization analysis was performed using the ForteBio OCTET R2 system.
The affinity of the humanized antibody to the antigen was detected by the surface plasmon resonance (SPR) assay method in Example 2.

[11] = target: T3, extracellular domain of human CD73 …; assay: ForteBio Octet (the filing calls it SPR), by the method of Example 2 according to the text; sheet prints 'Loading Sample ID: FDYKSD-02-His'; traces labelled 50, 25, 12.5, 6.25, 3.13

B1: humanized antibody 3D7-HM9-FCWT (Fc fusion)
VHH: QRQLVESGGGLVQPGGSLRLSCAASGFLLDYYVIGWFRQAPGKEREGVSCISGSDRSTYYADSVKGRFTISRDNAKNTVYLQMSSLRAEDTAVYYCAADPSPVTVQAMCLPRFPVPYWGKGTLVTVSS
notes: 3D7-HM9 VH on an Fc called FCWT; not shown: FCWT Fc segment
[1]
  EC50: 0.00206 mg/L
[2]
  IC50, inhibition of the catalytic function of CD73 enzyme on MDA-MB-231 cells: 0.126 mg/L
[3]
  EC50: 0.00209 mg/L

B2: 5-E11 derived antibody 5-E11ASCS (VHH)
VHH: ALQLVESGGGLVQPGGSLRLSCEVSGFTLDYYNIGWFRQAPGKEREGVSSSSASGGSTYYADSVKGRFTISRDNAKNTVYLQMNSLKPEDTGVYYCAAYRGWHPSLDARVYDYWGQGTEVTVSS
[4]
  EC50: 0.0179 mg/L
[5]
  EC50: 0.018 mg/L
[6]
  EC50: 0.015 mg/L

B3: humanized antibody 3D7-HM8-FC1 (Fc fusion)
heavy: QRQLVESGGGLVQPGGSLRLSCAASGFLLDYYVIGWFRQAPGKEREGVSCISGSDRSTYYADSVKGRFTISRDNSKNTVYLQMSSLRAEDTAVYYCAADPSPVTVQAMCLPRFPVPYWGQGTLVTVSSEPKSSDKTHTCPPCPAPEFEGGPSVFLFPPKPKDTLMISRTPEVTCVVVDVSHEDPEVKFNWYVDGVEVHNAKTKPREEQYNSTYRVVSVLTVLHQDWLNGKEYKCKVSNKALPASIEKTISKAKGQPREPQVYTLPPSRDELTKNQVSLTCLVKGFYPSDIAVEWESNGQPENNYKTTPPVLDSDGSFFLYSKLTVDKSRWQQGNVFSCSVMHEALHNHYTQKSLSLSPGK
[7]
  Max MFI: 106000 MFI
[8]
  IC50, inhibition of the catalytic function of recombinant human CD73 enzyme: 0.0555 mg/L
[9]
  EC50: 0.043 mg/L
[10]
  Kd: 1.17 nM
[11]
  koff: 0.000913 s⁻¹
  kon: 779000 M⁻¹ s⁻¹

B4: humanized antibody 3D7-HM7-FC1 (Fc fusion)
heavy: QRQLVESGGGLVQPGGSLRLSCAASGFLLDYYVIGWFRQAPGKEREGVSCISGSDRSTYYADSVKGRFTISRDNSKNTVYLQMGSLRAEDTAVYYCAADPSPVTVQAMCLPRFPVPYWGQGTLVTVSSEPKSSDKTHTCPPCPAPEFEGGPSVFLFPPKPKDTLMISRTPEVTCVVVDVSHEDPEVKFNWYVDGVEVHNAKTKPREEQYNSTYRVVSVLTVLHQDWLNGKEYKCKVSNKALPASIEKTISKAKGQPREPQVYTLPPSRDELTKNQVSLTCLVKGFYPSDIAVEWESNGQPENNYKTTPPVLDSDGSFFLYSKLTVDKSRWQQGNVFSCSVMHEALHNHYTQKSLSLSPGK
[7]
  Max MFI: 103000 MFI
[8]
  IC50, inhibition of the catalytic function of recombinant human CD73 enzyme: 0.0456 mg/L
[9]
  EC50: 0.02 mg/L
[10]
  Kd: 1.3 nM
[11]
  koff: 0.00091 s⁻¹
  kon: 702000 M⁻¹ s⁻¹

B5: humanized antibody 3D7-HM9-FC1 (Fc fusion)
heavy: QRQLVESGGGLVQPGGSLRLSCAASGFLLDYYVIGWFRQAPGKEREGVSCISGSDRSTYYADSVKGRFTISRDNAKNTVYLQMSSLRAEDTAVYYCAADPSPVTVQAMCLPRFPVPYWGKGTLVTVSSEPKSSDKTHTCPPCPAPEFEGGPSVFLFPPKPKDTLMISRTPEVTCVVVDVSHEDPEVKFNWYVDGVEVHNAKTKPREEQYNSTYRVVSVLTVLHQDWLNGKEYKCKVSNKALPASIEKTISKAKGQPREPQVYTLPPSRDELTKNQVSLTCLVKGFYPSDIAVEWESNGQPENNYKTTPPVLDSDGSFFLYSKLTVDKSRWQQGNVFSCSVMHEALHNHYTQKSLSLSPGK
[7]
  Max MFI: 105000 MFI
[1]
  EC50: 0.00188 mg/L
[2]
  EC50, reversal of the AMP inhibition of human T lymphocyte proliferation: 0.024 mg/L
  IC50, inhibition of the catalytic function of CD73 enzyme on MDA-MB-231 cells: 0.098 mg/L
[8]
  IC50, inhibition of the catalytic function of recombinant human CD73 enzyme: 0.0187 mg/L
[9]
  EC50: 0.02 mg/L
[10]
  Kd: 0.638 nM
[3]
  EC50: 0.0025 mg/L
[11]
  koff: 0.00086 s⁻¹
  kon: 1.35e+06 M⁻¹ s⁻¹
